Legend:
Experiment in all cases: oriented sample solid-state NMR
[1] = target: wild-type sarcolipin (SLN^wt), recombinant (UniProt O00631 1-31)
[2] = target: SLN^ΔI3N4T5 (sarcolipin with I3, N4 and T5 deleted) (UniProt O00631 1-31, ΔI3N4T5)
[3] = target: SLN^ΔY29Q30Y31 (sarcolipin with Y29, Q30 and Y31 deleted) (UniProt O00631 1-31, ΔY29Q30Y31)
[4] = target: SLN^ΔT5R6E7 (sarcolipin with T5, R6 and E7 deleted) (UniProt O00631 1-31, ΔT5R6E7)

- binding result [1]: binds
- binding result [2]: binds
- binding result [3]: binds
- binding result [4]: binds
B1: sarcoplasmic reticulum Ca2+-ATPase SERCA1a purified from rabbit skeletal muscle (enzyme)
chain: MEAAHSKSTEECLAYFGVSETTGLTPDQVKRHLEKYGHNELPAEEGKSLWELVIEQFEDLLVRILLLAACISFVLAWFEEGEETITAFVEPFVILLILIANAIVGVWQERNAENAIEALKEYEPEMGKVYRADRKSVQRIKARDIVPGDIVEVAVGDKVPADIRILSIKSTTLRVDQSILTGESVSVIKHTEPVPDPRAVNQDKKNMLFSGTNIAAGKALGIVATTGVSTEIGKIRDQMAATEQDKTPLQQKLDEFGEQLSKVISLICVAVWLINIGHFNDPVHGGSWIRGAIYYFKIAVALAVAAIPEGLPAVITTCLALGTRRMAKKNAIVRSLPSVETLGCTSVICSDKTGTLTTNQMSVCKMFIIDKVDGDFCSLNEFSITGSTYAPEGEVLKNDKPIRSGQFDGLVELATICALCNDSSLDFNETKGVYEKVGEATETALTTLVEKMNVFNTEVRNLSKVERANACNSVIRQLMKKEFTLEFSRDRKSMSVYCSPAKSSRAAVGNKMFVKGAPEGVIDRCNYVRVGTTRVPMTGPVKEKILSVIKEWGTGRDTLRCLALATRDTPPKREEMVLDDSSRFMEYETDLTFVGVVGMLDPPRKEVMGSIQLCRDAGIRVIMITGDNKGTAIAICRRIGIFGENEEVADRAYTGREFDDLPLAEQREACRRACCFARVEPSHKSKIVEYLQSYDEITAMTGDGVNDAPALKKAEIGIAMGSGTAVAKTASEMVLADDNFSTIVAAVEEGRAIYNNMKQFIRYLISSNVGEVVCIFLTAALGLPEALIPVQLLWVNLVTDGLPATALGFNPPDLDIMDRPPRSPKEPLISGWLFFRYMAIGGYVGAATVGAAAWWFMYAEDGPGVTYHQLTHFMQCTEDHPHFEGLDCEIFEAPEPMTMALSVLVTIEMCNALNSLSENQSLMRMPPWVNIWLLGSICLSMSLHFLILYVDPLPMIFKLKALDLTQWLMVLKISLPVIGLDEILKFIARNYLEG
